Assay results reported in publication PMC9068813, “Enhancer RNAs stimulate Pol II pause release by harnessing multivalent interactions to NELF”.

Assays:
Conditions in all cases: protein: recombinant; tags: His-tag (Ni-NTA purified); copies: 1;1;1;1
[1] = biological target: T1, NELF complex WT (UniProt Q9H3P2;Q8WX92;Q8IXH7;P18615 1-528;1-628;1-590;1-380); assay: EMSA (NELF release from PEC); apparent Kd; NELF in PEC on N1; 20 mM Na-HEPES pH 7.4, 100 mM NaCl, 25 mM KCl, 3 mM MgCl2, 2 mM DTT; assembly 30 °C, eRNA incubation 15-20 min at room temperature; 3.5% native PAGE 0.5x TBE at 4 °C; PEC about 0.1 µM NELF 0.15 µM
T1 sequence (Q9H3P2 whole entry, chain 1 of 4): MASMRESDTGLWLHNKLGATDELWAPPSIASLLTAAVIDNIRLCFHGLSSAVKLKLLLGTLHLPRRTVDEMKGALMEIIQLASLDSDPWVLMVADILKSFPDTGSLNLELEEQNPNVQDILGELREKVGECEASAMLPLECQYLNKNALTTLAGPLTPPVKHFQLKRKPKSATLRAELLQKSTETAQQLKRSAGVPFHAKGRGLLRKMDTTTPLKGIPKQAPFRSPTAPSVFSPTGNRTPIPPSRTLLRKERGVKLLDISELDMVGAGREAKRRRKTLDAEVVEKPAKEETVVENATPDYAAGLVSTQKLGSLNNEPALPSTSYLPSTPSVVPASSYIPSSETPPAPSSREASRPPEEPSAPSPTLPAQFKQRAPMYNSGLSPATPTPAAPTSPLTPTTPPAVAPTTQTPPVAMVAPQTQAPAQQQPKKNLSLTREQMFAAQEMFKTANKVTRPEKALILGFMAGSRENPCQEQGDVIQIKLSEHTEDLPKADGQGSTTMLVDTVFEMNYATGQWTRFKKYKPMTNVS
T1 sequence (Q8WX92 other isoform, or with tags, fused parts or gaps, chain 2 of 4): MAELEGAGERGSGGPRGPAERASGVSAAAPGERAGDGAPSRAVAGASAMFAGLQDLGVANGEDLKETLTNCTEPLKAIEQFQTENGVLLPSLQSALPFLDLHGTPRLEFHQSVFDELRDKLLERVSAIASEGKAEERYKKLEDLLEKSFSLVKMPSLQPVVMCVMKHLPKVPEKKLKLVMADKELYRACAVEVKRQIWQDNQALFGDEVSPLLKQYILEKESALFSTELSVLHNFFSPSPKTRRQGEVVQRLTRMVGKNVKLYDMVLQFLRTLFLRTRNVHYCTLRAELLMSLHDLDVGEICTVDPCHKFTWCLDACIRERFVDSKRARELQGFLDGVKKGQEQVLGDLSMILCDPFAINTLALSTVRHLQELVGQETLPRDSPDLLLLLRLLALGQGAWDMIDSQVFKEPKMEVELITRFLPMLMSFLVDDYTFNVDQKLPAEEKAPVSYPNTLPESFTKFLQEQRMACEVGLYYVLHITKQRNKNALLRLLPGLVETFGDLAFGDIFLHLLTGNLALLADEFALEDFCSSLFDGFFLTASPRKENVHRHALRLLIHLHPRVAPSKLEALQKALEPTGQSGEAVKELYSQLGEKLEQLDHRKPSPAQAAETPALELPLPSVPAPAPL
T1 sequence (Q8IXH7 whole entry, chain 3 of 4): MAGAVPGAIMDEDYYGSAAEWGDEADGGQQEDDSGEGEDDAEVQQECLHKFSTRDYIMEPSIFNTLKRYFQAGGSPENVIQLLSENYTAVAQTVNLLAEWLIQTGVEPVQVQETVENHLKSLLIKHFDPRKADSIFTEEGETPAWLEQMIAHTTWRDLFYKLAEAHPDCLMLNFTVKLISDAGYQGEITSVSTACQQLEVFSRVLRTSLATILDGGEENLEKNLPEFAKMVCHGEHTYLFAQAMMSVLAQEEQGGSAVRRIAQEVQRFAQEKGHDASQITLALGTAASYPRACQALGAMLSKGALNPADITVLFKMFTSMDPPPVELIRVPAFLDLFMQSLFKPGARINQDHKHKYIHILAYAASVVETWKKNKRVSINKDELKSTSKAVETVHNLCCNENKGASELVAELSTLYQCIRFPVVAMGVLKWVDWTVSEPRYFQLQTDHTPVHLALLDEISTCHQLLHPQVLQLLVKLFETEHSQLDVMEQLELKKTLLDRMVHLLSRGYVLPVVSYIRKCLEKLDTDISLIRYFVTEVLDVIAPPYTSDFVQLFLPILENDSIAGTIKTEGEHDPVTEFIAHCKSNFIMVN
T1 sequence (P18615 whole entry, chain 4 of 4): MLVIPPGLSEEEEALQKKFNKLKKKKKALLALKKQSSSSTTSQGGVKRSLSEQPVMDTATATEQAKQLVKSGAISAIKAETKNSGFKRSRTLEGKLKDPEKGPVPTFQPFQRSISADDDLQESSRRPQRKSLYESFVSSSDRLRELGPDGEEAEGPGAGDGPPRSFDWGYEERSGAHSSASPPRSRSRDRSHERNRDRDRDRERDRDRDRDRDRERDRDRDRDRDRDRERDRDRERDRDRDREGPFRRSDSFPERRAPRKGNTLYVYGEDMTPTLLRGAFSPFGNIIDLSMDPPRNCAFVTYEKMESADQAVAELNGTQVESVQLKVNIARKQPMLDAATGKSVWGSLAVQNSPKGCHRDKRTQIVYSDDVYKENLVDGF

[2] = biological target: T1, NELF complex WT; assay: EMSA (NELF release from PEC); release at about equimolar eRNA; 20 mM Na-HEPES pH 7.4, 100 mM NaCl, 25 mM KCl, 3 mM MgCl2, 2 mM DTT; assembly 30 °C, eRNA incubation 15-20 min at room temperature; 3.5% native PAGE 0.5x TBE at 4 °C; PEC about 0.1 µM NELF 0.15 µM
[3] = biological target: T1, NELF complex WT; assay: EMSA (NELF release from PEC); 18-fold molar excess; 20 mM Na-HEPES pH 7.4, 100 mM NaCl, 25 mM KCl, 3 mM MgCl2, 2 mM DTT; assembly 30 °C, eRNA incubation 15-20 min at room temperature; 3.5% native PAGE 0.5x TBE at 4 °C; PEC about 0.1 µM NELF 0.15 µM
[4] = biological target: T1, NELF complex WT; assay: EMSA (NELF release from PEC); 20 mM Na-HEPES pH 7.4, 100 mM NaCl, 25 mM KCl, 3 mM MgCl2, 2 mM DTT; assembly 30 °C, eRNA incubation 15-20 min at room temperature; 3.5% native PAGE 0.5x TBE at 4 °C; PEC about 0.1 µM NELF 0.15 µM
[5] = biological target: T1, NELF complex WT; assay: EMSA (NELF release from PEC); up to 2.4 µM; 20 mM Na-HEPES pH 7.4, 100 mM NaCl, 25 mM KCl, 3 mM MgCl2, 2 mM DTT; assembly 30 °C, eRNA incubation 15-20 min at room temperature; 3.5% native PAGE 0.5x TBE at 4 °C; PEC about 0.1 µM NELF 0.15 µM
[6] = biological target: T1, NELF complex WT; assay: EMSA (NELF release from PEC); DSIF also released at high RNA; 20 mM Na-HEPES pH 7.4, 100 mM NaCl, 25 mM KCl, 3 mM MgCl2, 2 mM DTT; assembly 30 °C, eRNA incubation 15-20 min at room temperature; 3.5% native PAGE 0.5x TBE at 4 °C; PEC about 0.1 µM NELF 0.15 µM
[7] = biological target: T1, NELF complex WT; assay: EMSA (NELF release from PEC); no DSIF release at high RNA; 20 mM Na-HEPES pH 7.4, 100 mM NaCl, 25 mM KCl, 3 mM MgCl2, 2 mM DTT; assembly 30 °C, eRNA incubation 15-20 min at room temperature; 3.5% native PAGE 0.5x TBE at 4 °C; PEC about 0.1 µM NELF 0.15 µM
[8] = biological target: T1, NELF complex WT; assay: size-exclusion chromatography; UV crosslinking-MS (365 nm); isolated NELF; 20 mM Na-HEPES pH 7.4, 100 mM NaCl, 25 mM KCl, 3 mM MgCl2, 2 mM DTT; assembly 30 °C, eRNA incubation 15-20 min at room temperature; 3.5% native PAGE 0.5x TBE at 4 °C; PEC about 0.1 µM NELF 0.15 µM

B1: Nr4a1-(a) eRNA 1-100 (structured_RNA)
RNA: GCGGUGAGAGUGAUUUUGUAACUCUAAAGUUACAGAGGGUUUUGUUGUGUUUUUAAUCAAGAGCCCUGGUUUUGAUUUGUGGGUAAUCUUUCUUUAAACC
Kd [1]: 140 nM

B2: Nr4a1-(b) eRNA 1-100 (structured_RNA)
RNA: AGUAGGGGCAUGGCUCGCCCGAGGCUCGGUGCUGCCCCGCCGCCCGCCGCGUUCCUUCCGGCUUGGUGUUCCGGUGGCGGGACCAGGGAAGGGAAGCUCG
Kd [1]: 2020 nM

B3: Arc eRNA 1-200 (structured_RNA)
RNA: AAAACACAGCCGCCAGGGUGGGGGUGGCAGCCUUGAACGCCACCCUCUAACUGGCAUGGGCAUCUGAACUCUCAGCUCUGGGGGUGUCUCAUCGGCCAGCUGGCAGUAGCCCCCCCAACCCCACCCCUGAUGGAGAACUGCUCCUGUAUGAUCCAGCCCAGUGGGCGCACAGGGAGUUGGUAGGUGGGCACUCAGACUGG
binding result [2]: binds

B4: Nr4a1-(a) eRNA 1-200 (structured_RNA)
RNA: GCGGUGAGAGUGAUUUUGUAACUCUAAAGUUACAGAGGGUUUUGUUGUGUUUUUAAUCAAGAGCCCUGGUUUUGAUUUGUGGGUAAUCUUUCUUUAAACCUCGCCCAUUUCCGGCCUGGUGACCUGGGCCACUUUCUCAUGUUGACCCAGAUGAUCCUCAGUAGCAAGAACAAAAGGACAACAGAUGUGGAAACACUCAA
binding result [2]: binds

B5: Nr4a1-(b) eRNA 1-200 (structured_RNA)
RNA: AGUAGGGGCAUGGCUCGCCCGAGGCUCGGUGCUGCCCCGCCGCCCGCCGCGUUCCUUCCGGCUUGGUGUUCCGGUGGCGGGACCAGGGAAGGGAAGCUCGGGCCAAAUCCGGUCUCGGGCGAGGUGACAGAAAUUUGGAAUCUGACACCGGAGGAUGGCUGAGCUCCGGCUCCUCUGGGAGUGCAAUUACGGACUUCGCA
binding result [2]: binds

B6: Arc eRNA 1-50 (structured_RNA)
RNA: AAAACACAGCCGCCAGGGUGGGGGUGGCAGCCUUGAACGCCACCCUCUAA
binding result [3]: no binding

B7: Nr4a1-(b) eRNA 1-50 (structured_RNA)
RNA: AGUAGGGGCAUGGCUCGCCCGAGGCUCGGUGCUGCCCCGCCGCCCGCCGC
binding result [3]: no binding

B8: Arc eRNA 96-200 (structured_RNA)
RNA: CCAGCUGGCAGUAGCCCCCCCAACCCCACCCCUGAUGGAGAACUGCUCCUGUAUGAUCCAGCCCAGUGGGCGCACAGGGAGUUGGUAGGUGGGCACUCAGACUGG
binding result [4]: binds

B9: Nr4a1-(a) eRNA 1-50 (ssRNA)
RNA: GCGGUGAGAGUGAUUUUGUAACUCUAAAGUUACAGAGGGUUUUGUUGUGU
Kd [1]: 9700 nM

B10: poly(A) (ssRNA)
RNA: AAAAAAAAAAAAAAAAAAAAAAAAAAAAAAAAAAAAAAAAAAAAAAAAAAAAAAAAAAAAAAAAAAAAAAAAAAAAAAAA
binding result [5]: no binding

B11: poly(U) (ssRNA)
RNA: UUUUUUUUUUUUUUUUUUUUUUUUUUUUUUUUUUUUUUUUUUUUUUUUUUUUUUUUUUUUUUUUUUUUUUUUUUUUUUUU
binding result [5]: no binding

B12: poly(CA) (ssRNA)
RNA: CACACACACACACACACACACACACACACACACACACACACACACACACACACACACACACACACACACACACACACACACACACACACACACACA
binding result [5]: no binding

B13: poly(UA) (ssRNA)
RNA: UAUAUAUAUAUAUAUAUAUAUAUAUAUAUAUAUAUAUAUAUAUAUAUAUAUAUAUAUAUAUAUAUAUAUAUAUAUAUAUAUAUAUAUAUAUAUAUA
binding result [5]: no binding

B14: poly(CU) (ssRNA)
RNA: CUCUCUCUCUCUCUCUCUCUCUCUCUCUCUCUCUCUCUCUCUCUCUCUCUCUCUCUCUCUCUCUCUCUCUCUCUCUCUCU
binding result [5]: no binding

B15: poly(GU)40, 80 nt (ssRNA)
RNA: GUGUGUGUGUGUGUGUGUGUGUGUGUGUGUGUGUGUGUGUGUGUGUGUGUGUGUGUGUGUGUGUGUGUGUGUGUGUGUGU
binding result [6]: binds

B16: poly(GA)48, 96 nt (ssRNA)
RNA: GAGAGAGAGAGAGAGAGAGAGAGAGAGAGAGAGAGAGAGAGAGAGAGAGAGAGAGAGAGAGAGAGAGAGAGAGAGAGAGAGAGAGAGAGAGAGAGA
binding result [6]: binds

B17: poly(G2A), 96 nt (ssRNA)
RNA: GGAGGAGGAGGAGGAGGAGGAGGAGGAGGAGGAGGAGGAGGAGGAGGAGGAGGAGGAGGAGGAGGAGGAGGAGGAGGAGGAGGAGGAGGAGGAGGA
binding result [4]: binds

B18: poly(G2A6), 96 nt (ssRNA)
RNA: GGAAAAAAGGAAAAAAGGAAAAAAGGAAAAAAGGAAAAAAGGAAAAAAGGAAAAAAGGAAAAAAGGAAAAAAGGAAAAAAGGAAAAAAGGAAAAAA
binding result [7]: binds

B19: Arc eRNA 1-200, 4SU (structured_RNA)
RNA: B3 RNA
modifications: 4-thiouridine, 40-80% of U
binding result [8]: binds

B20: Nr4a1-(a) eRNA 1-100, 4SU (structured_RNA)
RNA: B1 RNA
modifications: 4-thiouridine, 40-80% of U
binding result [8]: binds

B21: Nr4a1-(a) eRNA 1-200, 4SU (structured_RNA)
RNA: B4 RNA
modifications: 4-thiouridine, <60% of U
binding result [8]: binds
